The series concerns the molecule itself. In words: not described in this filing.

B1: 36-38A TCL1 (other, human, UniProt P56279 1-114, looked up)
chain: MAECPTLGEAVTDHPDRLWAWEKFVYLDEKQHAWLAAAIEIKDRLQLRVLLRREDVVLGRPMTPTQIGPSLLPIMWQLYPDGRYRSSDSSFWRLVYHIKIDGVEDMLLELLPDD
Consider B1, for which the binding result is listed as “no binding”.

(Values after US20120034651A1 (JAPAN SCIENCE AND TECHNOLOGY AGENCY, published 2012).)
